Experimental data as given in article PMC10104473.

Target: TEA domain transcription factor 1 (TEAD1) on the HuProt Human Proteome Microarray v3.1 (human) (UniProt P28347)
Experiment: peptide or protein array; purified FLAG-Lamin A/C (WT or Q353R) applied to a HuProt Human Proteome Microarray v3.1; two samples each, averages of the pairs compared

UniProt P28347, sequence (P28347 whole entry, the tested form may be a part): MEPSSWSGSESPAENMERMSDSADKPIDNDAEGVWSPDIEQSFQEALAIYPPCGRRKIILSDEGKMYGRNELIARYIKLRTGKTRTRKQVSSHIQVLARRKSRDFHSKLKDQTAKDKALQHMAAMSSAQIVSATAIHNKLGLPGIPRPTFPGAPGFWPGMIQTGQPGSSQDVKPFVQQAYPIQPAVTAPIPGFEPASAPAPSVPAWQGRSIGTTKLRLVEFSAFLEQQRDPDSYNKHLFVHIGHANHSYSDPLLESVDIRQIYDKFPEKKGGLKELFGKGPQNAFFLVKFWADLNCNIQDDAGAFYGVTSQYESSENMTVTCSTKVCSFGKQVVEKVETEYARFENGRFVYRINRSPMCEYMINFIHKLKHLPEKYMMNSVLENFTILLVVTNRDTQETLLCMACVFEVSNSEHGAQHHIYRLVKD

FLAG-tagged Q353R Lamin A/C (from UniProt P02545 1-646) (natural protein)
fold affinity against WT Lamin A/C: 8 fold
